One protein from publication doi:10.1101/2024.08.14.606984 (bioRxiv, 2024) can be followed below.

The series deals with the molecule itself. Nature of the series: SEC.

Usually stoichiometry N stands for a count of units in the complex or per binding partner.

B1: GCN2^K619R, kinase dead mutant of human General Control Non-derepressible 2 (GCN2) (enzyme, UniProt Q9P2K8 1-1649, looked up)
chain: MAGGRGAPGRGRDEPPESYPQRQDHELQALEAIYGADFQDLRPDACGPVKEPPEINLVLYPQGLTGEEVYVKVDLRVKCPPTYPDVVPEIELKNAKGLSNESVNLLKSRLEELAKKHCGEVMIFELAYHVQSFLSEHNKPPPKSFHEEMLERRAQEEQQRLLEAKRKEEQEQREILHEIQRRKEEIKEEKKRKEMAKQERLEIASLSNQDHTSKKDPGGHRTAAILHGGSPDFVGNGKHRANSSGRSRRERQYSVCNSEDSPGSCEILYFNMGSPDQLMVHKGKCIGSDEQLGKLVYNALETATGGFVLLYEWVLQWQKKMGPFLTSQEKEKIDKCKKQIQGTETEFNSLVKLSHPNVVRYLAMNLKEQDDSIVVDILVEHISGVSLAAHLSHSGPIPVHQLRRYTAQLLSGLDYLHSNSVVHKVLSASNVLVDAEGTVKITDYSISKRLADICKEDVFEQTRVRFSDNALPYKTGKKGDVWRLGLLLLSLSQGQECGEYPVTIPSDLPADFQDFLKKCVCLDDKERWSPQQLLKHSFINPQPKMPLVEQSPEDSEGQDYVETVIPSNRLPSAAFFSETQRQFSRYFIEFEELQLLGKGAFGAVIKVQNKLDGCCYAVRRIPINPASRQFRRIKGEVTLLSRLHHENIVRYYNAWIERHERPAGPGTPPPDSGPLAKDDRAARGQPASDTDGLDSVEAAAPPPILSSSVEWSTSGERSASARFPATGPGSSDDEDDDEDEHGGVFSQSFLPASDSESDIIFDNEDENSKSQNQDEDCNEKNGCHESEPSVTTEAVHYLYIQMEYCEKSTLRDTIDQGLYRDTVRLWRLFREILDGLAYIHEKGMIHRDLKPVNIFLDSDDHVKIGDFGLATDHLAFSADSKQDDQTGDLIKSDPSGHLTGMVGTALYVSPEVQGSTKSAYNQKVDLFSLGIIFFEMSYHPMVTASERIFVLNQLRDPTSPKFPEDFDDGEHAKQKSVISWLLNHDPAKRPTATELLKSELLPPPQMEESELHEVLHHTLTNVDGKAYRTMMAQIFSQRISPAIDYTYDSDILKGNFSIRTAKMQQHVCETIIRIFKRHGAVQLCTPLLLPRNRQIYEHNEAALFMDHSGMLVMLPFDLRIPFARYVARNNILNLKRYCIERVFRPRKLDRFHPKELLECAFDIVTSTTNSFLPTAEIIYTIYEIIQEFPALQERNYSIYLNHTMLLKAILLHCGIPEDKLSQVYIILYDAVTEKLTRREVEAKFCNLSLSSNSLCRLYKFIEQKGDLQDLMPTINSLIKQKTGIAQLVKYGLKDLEEVVGLLKKLGIKLQVLINLGLVYKVQQHNGIIFQFVAFIKRRQRAVPEILAAGGRYDLLIPQFRGPQALGPVPTAIGVSIAIDKISAAVLNMEESVTISSCDLLVVSVGQMSMSRAINLTQKLWTAGITAEIMYDWSQSQEELQEYCRHHEITYVALVSDKEGSHVKVKSFEKERQTEKRVLETELVDHVLQKLRTKVTDERNGREASDNLAVQNLKGSFSNASGLFEIHGATVVPIVSVLAPEKLSASTRRRYETQVQTRLQTSLANLHQKSSEIEILAVDLPKETILQFLSLEWDADEQAFNTTVKQLLSRLPKQRYLKLVCDEIYNIKVEKKVSVLFLYSYRDDYYRILF
For the protein B1, the “stoichiometry N” value came to 2.
